Data on 33 sequences can be found in the Immune Epitope Database (IEDB).

Common to all, as to assay: IEDB peptide-MHC binding, purified MHC/competitive/radioactivity; filed as Kd, often an IC50 or EC50 that approximates it; ≥ and ≤ were set here for values at or beyond the usual limits of such assays
For assay [1], the target named is HLA-A*02:03.
The target of assay [2] is HLA-A*02:02.
Assay [3] concerns the target HLA-A*02:06.
Assay [4] addresses HLA-A*33:01.
Assay [5] concerns the target HLA-A*31:01.
In assay [6] the target is HLA-A*03:01.
Assay [7] addresses HLA-A*68:01.
Assay [8] has as its target HLA-A*11:01.
The mark [9] stands for this setting: source organism: Vaccinia virus WR.
Where [10] appears, read: source organism: Mammarenavirus guanaritoense.
The mark [11] stands for this setting: source organism: SARS coronavirus Tor2.
The mark [12] stands for this setting: source organism: Mammarenavirus whitewaterense.

pKd: −log10 of the molar value.

By pKd is commonly meant −log10 of the Kd, conventionally taken in molar units. Consider DTLVKSGLT, for which the pKd in assay [1] (setting [9]) is 5.54; in assay [2] (setting [9]), 5.71; in assay [3] (setting [9]), at most 4.28.

For LTQVKELGIA, the pKd in assay [1] (setting [9]) was 6.82; in assay [2] (setting [9]) it was 4.93; in assay [3] (setting [9]) it was 7.74.

For GVCYYLLMHL, the pKd is 7.20 in assay [1] (setting [9]), 7.02 in assay [2] (setting [9]) and 6.89 in assay [3] (setting [9]).

Regarding TAYIGTSNWT, the pKd was 5.98 in assay [1] (setting [9]), 5.75 in assay [2] (setting [9]) and 6.66 in assay [3] (setting [9]).

For DIVSDSKKIM, the pKd was at most 4.24 in assay [1] (setting [9]), at most 4.60 in assay [2] (setting [9]) and at most 4.16 in assay [3] (setting [9]).

For the sequence AAAKTPVIV, the pKd is 5.85 in assay [1] (setting [9]), 5.72 in assay [2] (setting [9]) and at most 4.18 in assay [3] (setting [9]).

Regarding EAFETQSGA, the pKd is at most 4.11 in assay [1] (setting [9]), at most 4.11 in assay [2] (setting [9]) and at most 4.30 in assay [3] (setting [9]).

Consider CNYTRFWYI, for which the pKd in assay [1] (setting [10]) is 5.27; in assay [2] (setting [10]), 5.00; in assay [3] (setting [10]), 6.59.

Regarding TLNEYKQLYT, the pKd was 6.11 in assay [1] (setting [9]), 6.84 in assay [2] (setting [9]) and at most 4.16 in assay [3] (setting [9]).

For the sequence LLTIGLSLV, the pKd in assay [1] (source organism: Dengue virus 1 Brazil/97-11/1997) is 8.30.

Regarding RILGAGCFV, the pKd in assay [1] (setting [11]) was 7.27; in assay [2] (setting [11]), 7.61; in assay [3] (setting [11]) it was 7.42.

On to NLVQYRILPM, for which the pKd in assay [1] (setting [9]) is 5.88; in assay [2] (setting [9]) it was 5.40; in assay [3] (setting [9]) it was at most 4.61.

As to LVKDESIQL, the pKd in assay [1] (setting [9]) was 6.19; in assay [2] (setting [9]), 6.91; in assay [3] (setting [9]) it was 5.85.

With YIPPCQCTV, the pKd in assay [1] (setting [9]) is 6.35; in assay [2] (setting [9]), 6.71; in assay [3] (setting [9]), 7.03.

Take NLCKYLRGHT: the pKd in assay [1] (setting [9]) was 5.09; in assay [2] (setting [9]) it was at most 4.40; in assay [3] (setting [9]), at most 4.16.

Regarding GLFTSLGKAV, the pKd in assay [1] (source organism: Dengue virus 4 Dominica/814669/1981) is 7.73.

Turning to LLVAAGMEA, the pKd in assay [1] (setting [11]) was 7.78; in assay [2] (setting [11]), 7.76; in assay [3] (setting [11]) it was 6.93.

Turning to GLLQFIVFL, the pKd in assay [1] (setting [12]) was 5.11; in assay [2] (setting [12]), 9.22; in assay [3] (setting [12]) it was 7.91.

For NVSGVPHSV, the results for the negative-log Kd (pKd) in assay [1] (setting [9]), in assay [2] (setting [9]) and in assay [3] (setting [9]) were 7.62, 6.08 and 6.56, respectively.

On to GLYIPGTSVI, for which the pKd in assay [1] (setting [9]) was 9.72; in assay [2] (setting [9]) it was 7.04; in assay [3] (setting [9]), 5.44.

On to KINEMVDELV, for which the pKd in assay [1] (setting [9]) is 6.31; in assay [2] (setting [9]), 6.23; in assay [3] (setting [9]) it was 5.52.

In the case of VASDVCKKNL, the figures for the pKd in assay [1] (setting [9]), in assay [2] (setting [9]) and in assay [3] (setting [9]) were at most 4.15, at most 4.29 and at most 4.16, respectively.

For the sequence STVDVRNIV, the pKd in assay [1] (setting [9]) was 5.46; in assay [2] (setting [9]), 5.20; in assay [3] (setting [9]), 5.79.

Regarding LMGHFSWWTA, the pKd in assay [1] (setting [11]) is 6.87; in assay [2] (setting [11]) it was 7.72; in assay [3] (setting [11]) it was 7.01.

As for NILMDSIFV, the pKd is 6.65 in assay [1] (setting [9]), 6.60 in assay [2] (setting [9]) and 6.77 in assay [3] (setting [9]).

As to SAVFKDSFL, the results for the pKd in assay [1] (setting [9]), in assay [2] (setting [9]) and in assay [3] (setting [9]) were 6.27, 6.64 and 5.94, respectively.

For CVRNLEELTT, the pKd in assay [1] (setting [9]) was 4.82; in assay [2] (setting [9]), 4.90; in assay [3] (setting [9]), at most 4.37.

ALLSTDGNK: the pKd is at most 4.11 in assay [4] (setting [11]); 4.99 in assay [5] (setting [11]); 7.28 in assay [6] (setting [11]); at most 4.63 in assay [7] (setting [11]); 6.31 in assay [8] (setting [11]).

Take VTMMKYCSY: the pKd in assay [4] (setting [9]) is 5.69; in assay [5] (setting [9]) it was 6.34; in assay [6] (setting [9]), 6.19; in assay [7] (setting [9]), 6.28; in assay [8] (setting [9]), 8.06.

As to FTDISMSLYK, the pKd in assay [4] (setting [9]) was 5.38; in assay [5] (setting [9]), 5.03; in assay [6] (setting [9]), 7.25; in assay [7] (setting [9]), 7.60; in assay [8] (setting [9]), 8.05.

As to ITETIPIGM, the pKd in assay [1] (setting [9]) was at most 4.37; in assay [2] (setting [9]) it was 4.91; in assay [3] (setting [9]), 5.11.

In the case of DTGKKELALT, the values for the pKd in assay [1] (setting [9]), in assay [2] (setting [9]) and in assay [3] (setting [9]) were 6.58, 5.98 and 5.17, respectively.

With VLDRDGNFR, the pKd in assay [4] (setting [9]) is 6.22; in assay [5] (setting [9]), 6.80; in assay [6] (setting [9]), 5.48; in assay [7] (setting [9]), 6.03; in assay [8] (setting [9]), 4.81.
